# Source: article PMC8782417, “A PDK-1 allosteric agonist neutralizes insulin signaling derangements and beta-amyloid toxicity in neuronal cells and in vitro” (PLoS ONE, 2022)
# B1: Recombinant human PDK-1 (active) (enzyme, UniProt O15530 1-556, looked up)
# chain: MARTTSQLYDAVPIQSSVVLCSCPSPSMVRTQTESSTPPGIPGGSRQGPAMDGTAAEPRPGAGSLQHAQPPPQPRKKRPEDFKFGKILGEGSFSTVVLARELATSREYAIKILEKRHIIKENKVPYVTRERDVMSRLDHPFFVKLYFTFQDDEKLYFGLSYAKNGELLKYIRKIGSFDETCTRFYTAEIVSALEYLHGKGIIHRDLKPENILLNEDMHIQITDFGTAKVLSPESKQARANSFVGTAQYVSPELLTEKSACKSSDLWALGCIIYQLVAGLPPFRAGNEYLIFQKIIKLEYDFPEKFFPKARDLVEKLLVLDATKRLGCEEMEGYGPLKAHPFFESVTWENLHQQTPPKLTAYLPAMSEDDEDCYGNYDNLLSQFGCMQVSSSSSSHSLSASDTGLPQRSGSNIEQYIHDLDSNSFELDLQFSEDEKRLLLEKQAGGNPWHQFVENNLILKMGPVDKRKGLFARRRQLLLTEGPHLYYVDPVNKVLKGEIPWSQELRPEAKNFKTFFVHTPNRTYYLMDPSGNAHKWCRKIQEVWRQRYQSHPDAAVQ
# notes: phosphoinositide-dependent protein kinase-1 (PDK-1), human, recombinant, active; printed size 59 kDa; Commercial protein; also called phosphoinositide-dependent protein kinase-1; source: bought: Amsbio
# Biological target: T1, FAM-labeled Aβ42 peptide (carboxy-fluorescein conjugated to the N' terminus), prepared as ADDL oligomers (UniProt P05067 672-713, carboxy-fluorescein (FAM) on the N-terminus; the labelled peptide was mixed with wild type Aβ42 in a 1:2 molar ratio)
# T1 construct: Aβ42, the 42-residue β-amyloid peptide cut from the amyloid precursor protein (APP); Mixed with unlabelled wild type Aβ42 (1:2 molar ratio), then incubated at 4 °C for 24 hrs to oligomerise (ADDLs); also called FAM-Aβ42; FAM tagged-Aβ; source: bought: Anaspec (FAM-Aβ42); Aβ peptides from BioSource
# Experiment: fluorescence polarisation; in solution; FAM-Aβ42 probe (ADDL oligomers) fixed at 200 nM, recombinant PDK-1 or Akt-1 titrated 0-10 μM (Akt 0 to 12.5 μM) until saturation; 30 min, 25°C; 100 mM NaCl, 20 mM phosphate pH7.4, 2 mM DTT, 0.1% BSA, 2% DMSO; 2 experiments each
# Conditions: both partners purified
# T1 sequence (P05067 672-713): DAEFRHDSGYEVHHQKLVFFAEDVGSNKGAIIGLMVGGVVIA
binder,measurement,value
B1,IC50,~1000 nM
